Experimental data: publication PMC6721692

Assays:
[1] = target: endogenous TrkB of cultured rat hippocampal neurons (rat (endogenous in hippocampal neurons)) (UniProt Q63604); assay: native gel or EMSA; native PAGE (no SDS, no β-ME) of lysates of rat hippocampal neurons treated with vehicle or BDNF (1.0 nM, 15 min); Western blot with anti-TrkB antibodies (80E3, MM12)
[2] = target: endogenous TrkB of cultured rat hippocampal neurons (rat (endogenous in hippocampal neurons)) (UniProt Q63604); assay: non-reducing SDS-PAGE and Western blot; lysates of rat hippocampal neurons (vehicle or BDNF 1.0 nM) with SDS, without β-ME; blots with 80E3 and MM12

endogenous TrkB of cultured rat hippocampal neurons, Q63604 32-821 (receptor; other documents disagree on this pair), sequence (Q63604 32-821): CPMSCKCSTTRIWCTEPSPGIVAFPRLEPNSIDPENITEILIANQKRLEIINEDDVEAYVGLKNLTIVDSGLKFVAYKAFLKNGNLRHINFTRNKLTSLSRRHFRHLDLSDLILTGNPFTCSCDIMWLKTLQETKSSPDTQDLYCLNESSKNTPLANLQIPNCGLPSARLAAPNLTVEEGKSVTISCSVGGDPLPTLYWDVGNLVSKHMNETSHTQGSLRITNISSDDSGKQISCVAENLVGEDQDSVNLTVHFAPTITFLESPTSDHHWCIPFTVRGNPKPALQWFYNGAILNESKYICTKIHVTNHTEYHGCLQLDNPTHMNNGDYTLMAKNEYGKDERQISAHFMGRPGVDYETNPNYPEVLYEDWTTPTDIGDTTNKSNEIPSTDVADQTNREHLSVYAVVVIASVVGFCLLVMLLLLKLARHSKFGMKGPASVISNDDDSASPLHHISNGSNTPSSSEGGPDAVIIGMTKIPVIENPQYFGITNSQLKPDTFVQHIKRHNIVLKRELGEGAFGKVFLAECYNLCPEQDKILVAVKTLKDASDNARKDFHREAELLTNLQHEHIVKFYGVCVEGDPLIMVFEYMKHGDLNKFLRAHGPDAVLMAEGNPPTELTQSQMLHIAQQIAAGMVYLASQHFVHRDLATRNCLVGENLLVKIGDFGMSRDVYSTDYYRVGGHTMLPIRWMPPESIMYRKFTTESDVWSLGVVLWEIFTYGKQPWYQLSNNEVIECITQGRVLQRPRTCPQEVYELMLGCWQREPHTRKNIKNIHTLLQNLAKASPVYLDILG

- stoichiometry N [1]: 2
- stoichiometry N [2]: 2
Substance: endogenous TrkB of cultured rat hippocampal neurons, Q63604 32-821 (receptor; other documents disagree on this pair)
